From patent US20170233781
Changes are numbered by the printed parent chain. Names may count otherwise.

Columns and labels:
[1] = tested on: LPETA sorting signal (SEQ ID NO:29)
[2] = biological target: T1, ALLPR substrate (SEQ ID NO:46)
T1 chain: ALLPR

[3] = biological target: T2, RLRPR substrate (SEQ ID NO:39)
T2 chain: RLRPR

[4] = biological target: T3, LRPRA substrate (SEQ ID NO:37)
T3 chain: LRPRA

[5] = biological target: T4, PLRPR substrate (SEQ ID NO:44)
T4 chain: PLRPR

[6] = biological target: T5, RLLPR substrate (SEQ ID NO:40)
T5 chain: RLLPR

[7] = biological target: T6, PLLAR substrate (SEQ ID NO:47)
T6 chain: PLLAR

[8] = biological target: T7, RLAPR substrate (SEQ ID NO:45)
T7 chain: RLAPR

[9] = biological target: T8, ALSRR substrate (SEQ ID NO:38)
T8 chain: ALSRR

[10] = biological target: T9, VARRD substrate (SEQ ID NO:14)
T9 chain: VARRD

[11] = biological target: T10, PLLRR substrate (SEQ ID NO:43)
T10 chain: PLLRR

[12] = biological target: T11, RLTPR substrate (SEQ ID NO:31)
T11 chain: RLTPR

[13] = biological target: T12, RLSRR substrate (SEQ ID NO:41)
T12 chain: RLSRR

RRRRR substrate = biological target: T13, RRRRR substrate
T13 chain: RRRRR

[14] = biological target: T14, PLVPR substrate (SEQ ID NO:48)
T14 chain: PLVPR

[15] = biological target: T15, SPAKR substrate (SEQ ID NO:32)
T15 chain: SPAKR

[16] = biological target: T16, LQPRA substrate (SEQ ID NO:51)
T16 chain: LQPRA

[17] = biological target: T17, PLLPR substrate (SEQ ID NO:42)
T17 chain: PLLPR

[18] = biological target: T18, LLCKR substrate (SEQ ID NO:50)
T18 chain: LLCKR

[19] = biological target: T19, SLRRR substrate (SEQ ID NO:49)
T19 chain: SLRRR

[20] = biological target: T20, ALARR substrate (SEQ ID NO:36)
T20 chain: ALARR

[21] = biological target: T21, ENLYFQS substrate (SEQ ID NO:8)
T21 chain: ENLYFQS

[22] = biological target: T22, ENLYFES substrate (SEQ ID NO:1)
T22 chain: ENLYFES

Molecule: SrtA from S. pyogenes (residues 81-249)
- sortase transpeptidation in yeast ER (FACS, HA-FITC against FLAG-PE) [1]: A positive signal resulted in an increase in HA-FITC signal and decrease in FLAG-PE signal (FIG. 6B), in comparison to the negative control (FIG. 6A)

B1: Kex2 convertase (endogenous, yeast secretory pathway of Saccharomyces cerevisiae EBY100) (protein)
chain: APPMDSSLLPVKEAEDKLSINDPLFERQWHLVNPSFPGSDINVLDLWYNNITGAGVVAAIVDDGLDYENEDLKDNFCAEGSWDFNDNTNLPKPRLSDDYHGTRCAGEIAAKKGNNFCGVGVGYNAKISGIRILSGDITTEDEAASLIYGLDVNDIYSCSWGPADDGRHLQGPSDLVKKALVKGVTEGRDSKGAIYVFASGNGGTRGDNCNYDGYTNSIYSITIGAIDHKDLHPPYSEGCSAVMAVTYSSGSGEYIHSSDINGRCSNSHGGTSAAAPLAAGVYTLLLEANPNLTWRDVQYLSILSAVGLEKNADGDWRDSAMGKKYSHRYGFGKIDAHKLIEMSKTWENVNAQTWFYLPTLYVSQSTNSTEETLESVITISEKSLQDANFKRIEHVTVTVDIDTEIRGTTTVDLISPAGIISNLGVVRPRDVSSEGFKDWTFMSVAHWGENGVGDWKIKVKTTENGHRIDFHSWRLKLFGESIDSSKTETFVFGNDKEEVEPAATESTVSQYSASSTSISISATSTSSISIGVETSAIPQTTTASTDPDSDPNTPKKLSSPRQAMHYFLTIFLIGATFLVLYFMFFMKSRRRIRRSRAETYEFDIIDTDSEYDSTLDNGTSGITEPEEVEDFDFDLSDEDHLASLSSSENGDAEHTIDSVLTNENPFSDPIKQKFPNDANAESASNKLQELQPDVPPSSGRS
- substrate cleavage in EBY100 against EBY100^Kex2- (two-colour FACS, FLAG-PE/HA-FITC) [2]: ✓
- substrate cleavage in EBY100 against EBY100^Kex2- (two-colour FACS, FLAG-PE/HA-FITC) [3]: ✓
- substrate cleavage in EBY100 against EBY100^Kex2- (two-colour FACS, FLAG-PE/HA-FITC) [4]: ✓
- substrate cleavage in EBY100 against EBY100^Kex2- (two-colour FACS, FLAG-PE/HA-FITC) [5]: ✓
- substrate cleavage in EBY100 against EBY100^Kex2- (two-colour FACS, FLAG-PE/HA-FITC) [6]: ✓
- substrate cleavage in EBY100 against EBY100^Kex2- (two-colour FACS, FLAG-PE/HA-FITC) [7]: ✓
- substrate cleavage in EBY100 against EBY100^Kex2- (two-colour FACS, FLAG-PE/HA-FITC) [8]: ✓
- substrate cleavage in EBY100 against EBY100^Kex2- (two-colour FACS, FLAG-PE/HA-FITC) [9]: ✓
- substrate cleavage in EBY100 against EBY100^Kex2- (two-colour FACS) [10]: All three substrates exhibited cleavage in EBY100 and non-cleavage in EBY100^Kex2-
- substrate cleavage in EBY100 against EBY100^Kex2- (two-colour FACS, FLAG-PE/HA-FITC) [11]: ✓
- substrate cleavage in EBY100 against EBY100^Kex2- (two-colour FACS, FLAG-PE/HA-FITC) [12]: ✓
- substrate cleavage in EBY100 against EBY100^Kex2- (two-colour FACS, FLAG-PE/HA-FITC) [13]: ✓
- substrate cleavage in EBY100 against EBY100^Kex2- (RRRRR substrate): the RRRRR was also found to be only cleaved in the EBY100 and not in the EBY100^Kex2-
- substrate cleavage in EBY100 against EBY100^Kex2- (two-colour FACS, FLAG-PE/HA-FITC) [14]: ✓
- substrate cleavage in EBY100 against EBY100^Kex2- (two-colour FACS) [15]: All three substrates exhibited cleavage in EBY100 and non-cleavage in EBY100^Kex2-
- substrate cleavage in EBY100 against EBY100^Kex2- (two-colour FACS) [16]: efficient cleavage in the EBY100 and non-cleavage in the EBY100^Kex2- strain
- substrate cleavage in EBY100 against EBY100^Kex2- (two-colour FACS, FLAG-PE/HA-FITC) [17]: ✓
- substrate cleavage in EBY100 against EBY100^Kex2- (two-colour FACS) [18]: All three substrates exhibited cleavage in EBY100 and non-cleavage in EBY100^Kex2-
- substrate cleavage in EBY100 against EBY100^Kex2- (two-colour FACS, FLAG-PE/HA-FITC) [19]: ✓
- substrate cleavage in EBY100 against EBY100^Kex2- (two-colour FACS, FLAG-PE/HA-FITC) [20]: ✓

B2: wild-type tobacco etch mosaic virus protease (TEV-P) (protein)
chain: GESLFKGPRDYNPISSTICHLTNESDGHTTSLYGIGFGPFIITNKHLFRRNNGTLLVQSLHGVFKVKNTTTLQQHLIDGRDMIIIRMPKDFPPFPQKLKFREPQREERICLVTTNFQTKSMSSMVSDTSCTFPSSDGIFWKHWIQTKDGQCGSPLVSTRDGFIVGIHSASNFTNTNNYFTSVPKNFMELLTNQEAQQWVSGWRLNADSVLWGGHKVFMSKPEEPFQPVKEATQLMNELVYSQFEHDEL
- enrichment of cleaved substrate sequences after FACS sorting (YESS with NextGen sequencing) [21]: significant enrichments of the ENLYFQS (SEQ ID NO:8) sequence were observed for the wide-type TEV-P

B3: engineered TEV protease variant TEV-PE10 (S120R, D148R, T173A, N177K, M218I) (protein)
chain: B2 chain with S120R, D148R, T173A, N177K, M218I
- enrichment of cleaved substrate sequences after FACS sorting (YESS with NextGen sequencing) [22]: significant enrichments of the ... ENLYFES (SEQ ID NO:1) sequence for the engineered TEV-PE10
